# Laboratory results: PMC2250751
# Tests used:
# L144F SOD1 (human) [1] = biological target: L144F SOD1 (human) (UniProt P00441); experiment: SEC; metal-free (apo) form at time zero, before incubation; gel filtration chromatography
# L144F SOD1 (human) [2] = biological target: L144F SOD1 (human) (UniProt P00441); experiment: SEC; zinc-reconstituted form; gel filtration chromatography; 100 µM (as dimer), 20 mM phosphate pH 7; no larger species also after more than a month at 37°C
# G93A SOD1 (human) [3] = biological target: G93A SOD1 (human) (UniProt P00441); experiment: SEC; metal-free (apo) form at time zero, before incubation; gel filtration chromatography
# G93A SOD1 (human) [4] = biological target: G93A SOD1 (human) (UniProt P00441); experiment: SEC; zinc-reconstituted form; gel filtration chromatography; 100 µM (as dimer), 20 mM phosphate pH 7; no larger species also after more than a month at 37°C
# V87M SOD1 (human) [5] = biological target: V87M SOD1 (human) (UniProt P00441); experiment: SEC; metal-free (apo) form at time zero, before incubation; gel filtration chromatography
# V87M SOD1 (human) [6] = biological target: V87M SOD1 (human) (UniProt P00441); experiment: SEC; zinc-reconstituted form; gel filtration chromatography; 100 µM (as dimer), 20 mM phosphate pH 7; no larger species also after more than a month at 37°C
# T54R SOD1 (human) [7] = biological target: T54R SOD1 (human) (UniProt P00441); experiment: SEC; metal-free (apo) form at time zero, before incubation; gel filtration chromatography
# T54R SOD1 (human) [8] = biological target: T54R SOD1 (human) (UniProt P00441); experiment: SEC; zinc-reconstituted form; gel filtration chromatography; 100 µM (as dimer), 20 mM phosphate pH 7; no larger species also after more than a month at 37°C
# G93D SOD1 (human) [9] = biological target: G93D SOD1 (human) (UniProt P00441); experiment: SEC; metal-free (apo) form at time zero, before incubation; gel filtration chromatography
# G93D SOD1 (human) [10] = biological target: G93D SOD1 (human) (UniProt P00441); experiment: SEC; zinc-reconstituted form; gel filtration chromatography; 100 µM (as dimer), 20 mM phosphate pH 7; no larger species also after more than a month at 37°C
# I113F SOD1 (human) [11] = biological target: I113F SOD1 (human) (UniProt P00441); experiment: SEC; metal-free (apo) form at time zero, before incubation; gel filtration chromatography
# I113F SOD1 (human) [12] = biological target: I113F SOD1 (human) (UniProt P00441); experiment: SEC; zinc-reconstituted form; gel filtration chromatography; 100 µM (as dimer), 20 mM phosphate pH 7; no larger species also after more than a month at 37°C
# V97M SOD1 (human) [13] = biological target: V97M SOD1 (human) (UniProt P00441); experiment: SEC; metal-free (apo) form at time zero, before incubation; gel filtration chromatography
# V97M SOD1 (human) [14] = biological target: V97M SOD1 (human) (UniProt P00441); experiment: SEC; zinc-reconstituted form; gel filtration chromatography; 100 µM (as dimer), 20 mM phosphate pH 7; no larger species also after more than a month at 37°C
# L67V SOD1 (human) [15] = biological target: L67V SOD1 (human) (UniProt P00441); experiment: SEC; metal-free (apo) form at time zero, before incubation; gel filtration chromatography
# L67V SOD1 (human) [16] = biological target: L67V SOD1 (human) (UniProt P00441); experiment: SEC; zinc-reconstituted form; gel filtration chromatography; 100 µM (as dimer), 20 mM phosphate pH 7; no larger species also after more than a month at 37°C
# D90A SOD1 (human) [17] = biological target: D90A SOD1 (human) (UniProt P00441); experiment: SEC; metal-free (apo) form at time zero, before incubation; gel filtration chromatography
# D90A SOD1 (human) [18] = biological target: D90A SOD1 (human) (UniProt P00441); experiment: SEC; zinc-reconstituted form; gel filtration chromatography; 100 µM (as dimer), 20 mM phosphate pH 7; no larger species also after more than a month at 37°C
# I113T SOD1 (human) [19] = biological target: I113T SOD1 (human) (UniProt P00441); experiment: SEC; metal-free (apo) form at time zero, before incubation; gel filtration chromatography
# I113T SOD1 (human) [20] = biological target: I113T SOD1 (human) (UniProt P00441); experiment: SEC; zinc-reconstituted form; gel filtration chromatography; 100 µM (as dimer), 20 mM phosphate pH 7; no larger species also after more than a month at 37°C
# I35T SOD1 (human) [21] = biological target: I35T SOD1 (human) (UniProt P00441); experiment: SEC; metal-free (apo) form at time zero, before incubation; gel filtration chromatography
# I35T SOD1 (human) [22] = biological target: I35T SOD1 (human) (UniProt P00441); experiment: SEC; zinc-reconstituted form; gel filtration chromatography; 100 µM (as dimer), 20 mM phosphate pH 7; no larger species also after more than a month at 37°C
substance,measurement,setting,value
L144F SOD1 (from UniProt P00441 8-154) (enzyme),stoichiometry N,L144F SOD1 (human) [1],2
same,stoichiometry N,L144F SOD1 (human) [2],2
G93A SOD1 (from UniProt P00441 8-154) (enzyme),stoichiometry N,G93A SOD1 (human) [3],2
same,stoichiometry N,G93A SOD1 (human) [4],2
V87M SOD1 (from UniProt P00441 8-154) (enzyme),stoichiometry N,V87M SOD1 (human) [5],2
same,stoichiometry N,V87M SOD1 (human) [6],2
T54R SOD1 (from UniProt P00441 8-154) (enzyme),stoichiometry N,T54R SOD1 (human) [7],2
same,stoichiometry N,T54R SOD1 (human) [8],2
G93D SOD1 (from UniProt P00441 8-154) (enzyme),stoichiometry N,G93D SOD1 (human) [9],2
same,stoichiometry N,G93D SOD1 (human) [10],2
I113F SOD1 (from UniProt P00441 8-154) (enzyme),stoichiometry N,I113F SOD1 (human) [11],2
same,stoichiometry N,I113F SOD1 (human) [12],2
V97M SOD1 (from UniProt P00441 8-154) (enzyme),stoichiometry N,V97M SOD1 (human) [13],2
same,stoichiometry N,V97M SOD1 (human) [14],2
L67V SOD1 (from UniProt P00441 8-154) (enzyme),stoichiometry N,L67V SOD1 (human) [15],2
same,stoichiometry N,L67V SOD1 (human) [16],2
D90A SOD1 (from UniProt P00441 8-154) (enzyme),stoichiometry N,D90A SOD1 (human) [17],2
same,stoichiometry N,D90A SOD1 (human) [18],2
I113T SOD1 (from UniProt P00441 8-154) (enzyme),stoichiometry N,I113T SOD1 (human) [19],2
same,stoichiometry N,I113T SOD1 (human) [20],2
I35T SOD1 (from UniProt P00441 8-154) (enzyme),stoichiometry N,I35T SOD1 (human) [21],2
same,stoichiometry N,I35T SOD1 (human) [22],2
